In assay [1] the target is T1, human CD81 on CD81-expressing cells (Jurkat E6.1, human PBMC, Ramos) (human, UniProt P60033 1-236).
T1 construct: endogenous CD81 of the cells; also called wild type human CD81
T1 sequence: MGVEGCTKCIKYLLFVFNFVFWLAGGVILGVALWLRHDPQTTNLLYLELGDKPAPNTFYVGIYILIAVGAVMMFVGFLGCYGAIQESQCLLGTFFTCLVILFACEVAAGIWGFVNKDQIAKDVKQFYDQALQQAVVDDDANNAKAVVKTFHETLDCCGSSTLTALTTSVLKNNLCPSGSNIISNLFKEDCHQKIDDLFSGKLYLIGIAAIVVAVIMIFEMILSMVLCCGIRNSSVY
The assay can be described thus: flow cytometry, human PBMC. The text has this:
Based on known information (JOURNAL OF VIROLOGY., 79, 4316-4328, 2005), Jurkat E6.1 cells and human PBMC (Peripheral Blood Mononuclear cells) were used as human CD81-expressing cells to confirm binding of the antibodies of the present invention obtained in Example 1 to the human CD81-expressing cells. Jurkat E6.1 cells were purchased from European Collection of Cell Cultures (ECACC) (Cat No. 88042803). Human PBMC were purchased from KAC Co., Ltd. (KAC). These cells were collected by centrifugation (4,000 rpm, 3 min, 4° C.) and suspended in FACS staining buffer (phosphate buffer, 0.09% sodium azide, 1% bovine serum albumin (BSA: Hyclone Laboratories)). The number of viable cells was counted using trypan blue and 10⁶ cells/100 μl were added in an eppendorf tube.
To the cells prepared in (1) above was added the anti-human CD81 antibody (002-A07 or 005-001) prepared in Example 1 or a human IgG4 (Acris) as a control (0.1 μg), and the cells were incubated for 20 min at 4° C. […] The binding ratio (%) of the anti-human CD81 antibody to the cells was analyzed by flow cytometry using FACS Calibur (BD Biosciences) and calculated as the percentage of cells having a PE-derived fluorescent intensity greater than that observed when the control IgG4 is used. […]
Background: In flow cytometry, cells or beads pass a laser one at a time.

The target of the next assay is T2, human CD81 mutant V169A (human, UniProt P60033 1-236, limits assumed).
T2 construct: as m30; not shown: C-terminal V5 and 6xHis tags
T2 sequence: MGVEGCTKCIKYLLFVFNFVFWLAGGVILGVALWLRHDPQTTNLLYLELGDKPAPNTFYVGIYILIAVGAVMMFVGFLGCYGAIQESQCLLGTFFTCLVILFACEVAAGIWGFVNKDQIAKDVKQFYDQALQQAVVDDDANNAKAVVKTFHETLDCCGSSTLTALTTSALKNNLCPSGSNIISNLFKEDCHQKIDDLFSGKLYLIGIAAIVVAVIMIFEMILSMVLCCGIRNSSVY
The assay can be described thus: ELISA. A digest of the protocol: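 Altered forms of human CD81 carrying C-terminal V5 and 6×His tags were cloned in pcDNA-DEST40 and expressed transiently in CHO cells for 48 hours, after which membranes were solubilised in 1% n-octylglucoside and captured on Ni-NTA His Sorb plates at 5 μg/100 μL/well for 3 hours at 4° C. Antibody was bound for 1 hour at room temperature and detected with HRP anti-human IgG4 and TMB, reading absorbance at 450 nm. Relative binding affinity is expressed as a percentage of binding to unmodified CD81, adjusted for V5-tag expression.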
On the technique in general: ELISA stands for enzyme-linked immunosorbent assay.

Experimental findings from patent publication US20150139990A1 (DAINIPPON SUMITOMO PHARMA, published 2015) are described below.

B1: 002-A07 IgG4 antibody (antibody)
heavy: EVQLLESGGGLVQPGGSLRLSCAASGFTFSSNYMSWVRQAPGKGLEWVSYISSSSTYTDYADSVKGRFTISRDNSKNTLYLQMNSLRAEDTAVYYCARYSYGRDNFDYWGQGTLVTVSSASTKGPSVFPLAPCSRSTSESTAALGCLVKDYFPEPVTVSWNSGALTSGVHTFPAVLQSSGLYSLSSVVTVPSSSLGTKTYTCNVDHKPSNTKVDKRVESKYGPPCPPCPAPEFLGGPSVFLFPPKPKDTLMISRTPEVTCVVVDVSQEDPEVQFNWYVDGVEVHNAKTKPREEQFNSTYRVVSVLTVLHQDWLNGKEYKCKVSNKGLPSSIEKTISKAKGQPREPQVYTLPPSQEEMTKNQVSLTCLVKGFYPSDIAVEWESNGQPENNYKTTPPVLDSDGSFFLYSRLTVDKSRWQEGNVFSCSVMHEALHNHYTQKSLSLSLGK
light: QSVLTQPPSASGTPGQRVTISCTGSTSNIGAGYDTHWYQQLPGTAPKLLIYGNSNRPSGVPDRFSGSKSGTSASLAISGLRSEDEADYYCQSYDTNLSVWVFGGGTKLTVLGQPKAAPSVTLFPPSSEELQANKATLVCLISDFYPGAVTVAWKADSSPVKAGVETTTPSKQSNNKYAASSYLSLTPEQWKSHRSYSCQVTHEGSTVEKTVAPTECS
notes: human IgG4 S228P, lambda light chain
Take B1: the “binding ratio to cells (%)” value in assay [1] was found to be 99%. The molecule also came in with a relative binding affinity with human CD81 mutant V169A of under 20%.
